Source: IntAct's records for PubMed 22158122

B1: TGF-beta-activated kinase 1 and MAP3K7-binding protein 3 (Homo sapiens), Q8N5C8-1 (parent)
chain: MAQSSPQLDIQVLHDLRQRFPEIPEGVVSQCMLQNNNNLEACCRALSQESSKYLYMEYHSPDDNRMNRNRLLHINLGIHSPSSYHPGDGAQLNGGRTLVHSSSDGHIDPQHAAGKQLICLVQEPHSAPAVVAATPNYNPFFMNEQNRSAATPPSQPPQQPSSMQTGMNPSAMQGPSPPPPPPSYMHIPRYSTNPITVTVSQNLPSGQTVPRALQILPQIPSNLYGSPGSIYIRQTSQSSSGRQTPQSTPWQSSPQGPVPHYSQRPLPVYPHQQNYQPSQYSPKQQQIPQSAYHSPPPSQCPSPFSSPQHQVQPSQLGHIFMPPSPSTTPPHPYQQGPPSYQKQGSHSVAYLPYTASSLSKGSMKKIEITVEPSQRPGTAINRSPSPISNQPSPRNQHSLYTATTPPSSSPSRGISSQPKPPFSVNPVYITYTQPTGPSCTPSPSPRVIPNPTTVFKITVGRATTENLLNLVDQEERSAAPEPIQPISVIPGSGGEKGSHKYQRSSSSGSDDYAYTQALLLHQRARMERLAKQLKLEKEELERLKSEVNGMEHDLMQRRLRRVSCTTAIPTPEEMTRLRSMNRQLQINVDCTLKEVDLLQSRGNFDPKAMNNFYDNIEPGPVVPPKPSKKDSSDPCTIERKARRISVTSKVQADIHDTQAAAADEHRTGSTQSPRTQPRDEDYEGAPWNCDSCTFLNHPALNRCEQCEMPRYT
partner: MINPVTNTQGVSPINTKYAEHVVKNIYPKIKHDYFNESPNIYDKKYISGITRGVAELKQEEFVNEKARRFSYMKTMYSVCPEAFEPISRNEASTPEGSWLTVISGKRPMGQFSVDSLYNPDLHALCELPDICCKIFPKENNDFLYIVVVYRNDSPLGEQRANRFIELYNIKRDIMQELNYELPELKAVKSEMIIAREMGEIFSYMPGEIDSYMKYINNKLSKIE
B2: TGF-beta-activated kinase 1 and MAP3K7-binding protein 2 (Homo sapiens), Q9NYJ8 (parent)
chain: MAQGSHQIDFQVLHDLRQKFPEVPEVVVSRCMLQNNNNLDACCAVLSQESTRYLYGEGDLNFSDDSGISGLRNHMTSLNLDLQSQNIYHHGREGSRMNGSRTLTHSISDGQLQGGQSNSELFQQEPQTAPAQVPQGFNVFGMSSSSGASNSAPHLGFHLGSKGTSSLSQQTPRFNPIMVTLAPNIQTGRNTPTSLHIHGVPPPVLNSPQGNSIYIRPYITTPGGTTRQTQQHSGWVSQFNPMNPQQVYQPSQPGPWTTCPASNPLSHTSSQQPNQQGHQTSHVYMPISSPTTSQPPTIHSSGSSQSSAHSQYNIQNISTGPRKNQIEIKLEPPQRNNSSKLRSSGPRTSSTSSSVNSQTLNRNQPTVYIAASPPNTDELMSRSQPKVYISANAATGDEQVMRNQPTLFISTNSGASAASRNMSGQVSMGPAFIHHHPPKSRAIGNNSATSPRVVVTQPNTKYTFKITVSPNKPPAVSPGVVSPTFELTNLLNHPDHYVETENIQHLTDPTLAHVDRISETRKLSMGSDDAAYTQALLVHQKARMERLQRELEIQKKKLDKLKSEVNEMENNLTRRRLKRSNSISQIPSLEEMQQLRSCNRQLQIDIDCLTKEIDLFQARGPHFNPSAIHNFYDNIGFVGPVPPKPKDQRSIIKTPKTQDTEDDEGAQWNCTACTFLNHPALIRCEQCEMPRHF
partner: B1 partner

Variants of: B1
Conditions: with nlee_eco27 nleE

Variant | effect of a mutation on the interaction
C706S | disrupting interaction
C689S | disrupting interaction
C703S | disrupting interaction

Variants of: B2
Conditions: with nlee_eco27 nleE

Variant | effect of a mutation on the interaction
C684S | disrupting interaction
C687S | disrupting interaction
C670S | disrupting interaction
